Ends that are not written are not given here.
T1: His-HMG20b (human, UniProt Q9P0W2 1-317)
T1 sequence: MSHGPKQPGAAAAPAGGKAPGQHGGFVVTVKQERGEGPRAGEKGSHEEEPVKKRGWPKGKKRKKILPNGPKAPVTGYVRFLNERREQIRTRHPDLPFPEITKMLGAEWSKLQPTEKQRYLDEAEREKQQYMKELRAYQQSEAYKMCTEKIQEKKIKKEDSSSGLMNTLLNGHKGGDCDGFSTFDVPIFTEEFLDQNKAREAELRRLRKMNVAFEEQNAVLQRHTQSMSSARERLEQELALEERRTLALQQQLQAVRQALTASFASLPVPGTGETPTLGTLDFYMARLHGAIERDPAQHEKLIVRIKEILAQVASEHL


How the values were obtained:
[1] = target: HMG20b (human (endogenous in 293T and HeLa)) (UniProt Q9P0W2); experiment: co-IP
[2] = target: T1, His-HMG20b; experiment: pull-down

fraction of the protein present in the complex [1] [%]	binding result [2]	Molecule
< 5	–	BRCA2, P51587 1-3418
–	binds	YSVIENSALAFYTSCSRKTSVSQTSLLEAKKWLRE (also: biotin label, position not given here) [Biotin-labelled BRC5 peptide (BRCA2 1661-1695)]

Reference: PMC3145889 (Oncogene, 2011)
